pKd: −log10 of the molar value.
Biological target: murine TRIM66 PHD-Bromodomain (a.a. 996-1,185) (mouse) (UniProt Q924W6)
Experiment: ITC; 800 uM to 2.4 mM peptide in the syringe injected into 30-50 uM mTRIM66 PHD-Bromodomain in the cell; 25°C; 20 mM Tris pH 7.5, 100 mM NaCl; single-site binding model; triplicate

Chain of UniProt Q924W6 (Q924W6 996-1185): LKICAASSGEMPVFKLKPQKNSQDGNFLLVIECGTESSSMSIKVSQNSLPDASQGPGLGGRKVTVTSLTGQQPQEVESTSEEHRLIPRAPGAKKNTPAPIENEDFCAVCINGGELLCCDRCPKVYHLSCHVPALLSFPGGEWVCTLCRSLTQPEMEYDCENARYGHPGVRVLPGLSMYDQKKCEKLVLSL

**Q.** “H3 (1-30) K4me3 (from UniProt P68431 2-31) (peptide)” was tested. Which pKd did it give?
**A.** Its pKd is 4.23.

**Q.** For “H3 (1-30) K4me3+K18Ac (from UniProt P68431 2-31) (peptide)”, which fold decrease of the binding affinity against the unmodified H3 tail is on record?
**A.** Its fold decrease of the binding affinity against the unmodified H3 tail is 7.1 fold.

**Q.** And the fold increase of the binding affinity against H3K4me3 alone?
**A.** The fold increase of the binding affinity against H3K4me3 alone was 2.4 fold.

**Q.** With “H3 (1-30) K9me3+K18Ac (from UniProt P68431 2-31) (peptide)” as the substance, how does the pKd read?
**A.** The pKd was 5.89.

**Q.** With “H3 (1-30) unmodified (from UniProt P68431 2-31) (peptide)” as the substance, how does the pKd read?
**A.** The pKd was 5.47.

Reference: PMC11077763
